Laboratory results as given in patent US20230265151A1, “GIP/GLP1 CO-AGONIST COMPOUNDS” (priority 2020, published 2023).

What was measured:
human GLP-1 receptor [1] = biological target: T1, human GLP-1 receptor (human, UniProt P43220 24-463); test: SPA competition vs [125I]-GLP-1, hGLP-1R membranes
T1 construct: whole, on cells; also called hGLP-1R; human glucagon-like peptide-1 receptor
Experimental: The binding buffer contains 25 mM HEPES, pH 7.4, 2.5 mM CaCl₂, 1 mM MgCl₂, 0.1% (w/v) bacitracin, 0.003% (w/v) TWEEN®-20, and Roche Complete™ Protease Inhibitors without EDTA.
(§1) Data are analyzed using four-parameter (curve maximum, curve minimum, IC₅₀, Hill slope) nonlinear regression routines (Genedata Screener, version 12.0.4, Genedata AG, Basal, Switzerland). […] Values for Kᵢ are reported as the geometric mean, with error expressed as the standard error of the mean (SEM) and n is equal to the number of independent replicates (determined in assays performed on different days). Geometric Means are calculated as follows: […]

human GIP receptor [2] = biological target: T2, human GIP receptor (human, UniProt P48546 22-466); test: SPA competition vs [125I]-GIP, hGIPR membranes
T2 construct: whole, on cells; also called hGIPR; human glucose-dependent insulinotropic polypeptide receptor
T2 sequence (looked up): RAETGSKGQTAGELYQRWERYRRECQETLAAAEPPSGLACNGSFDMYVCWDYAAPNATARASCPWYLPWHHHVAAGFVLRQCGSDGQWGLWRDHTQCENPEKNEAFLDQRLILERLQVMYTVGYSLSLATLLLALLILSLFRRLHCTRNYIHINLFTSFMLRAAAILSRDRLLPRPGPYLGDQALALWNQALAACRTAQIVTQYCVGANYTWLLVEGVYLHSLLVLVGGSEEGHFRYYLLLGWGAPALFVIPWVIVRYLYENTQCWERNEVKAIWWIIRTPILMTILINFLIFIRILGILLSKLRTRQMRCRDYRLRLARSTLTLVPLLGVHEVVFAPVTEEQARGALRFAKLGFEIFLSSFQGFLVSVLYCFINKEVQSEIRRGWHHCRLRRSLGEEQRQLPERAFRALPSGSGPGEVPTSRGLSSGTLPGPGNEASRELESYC
Experimental: The binding buffer contains 25 mM HEPES, pH 7.4, 2.5 mM CaCl₂, 1 mM MgCl₂, 0.1% (w/v) bacitracin, 0.003% (w/v) TWEEN®-20, and Roche Complete™ Protease Inhibitors without EDTA. […] Plates are sealed and mixed on a plate shaker (setting 6) for 1 minute and read with a PerkinElmer Trilux MicroBeta® scintillation counter after 2.5 to 12 hours of incubation/settling time at room temperature.
as §1

human glucagon receptor = human glucagon receptor (human, UniProt P47871 26-477); test: cell-based or functional assay
human GIP receptor [3] = biological target: T3, human GIP receptor (human, UniProt P48546 22-466); test: cell-based or functional assay
T3 sequence (looked up): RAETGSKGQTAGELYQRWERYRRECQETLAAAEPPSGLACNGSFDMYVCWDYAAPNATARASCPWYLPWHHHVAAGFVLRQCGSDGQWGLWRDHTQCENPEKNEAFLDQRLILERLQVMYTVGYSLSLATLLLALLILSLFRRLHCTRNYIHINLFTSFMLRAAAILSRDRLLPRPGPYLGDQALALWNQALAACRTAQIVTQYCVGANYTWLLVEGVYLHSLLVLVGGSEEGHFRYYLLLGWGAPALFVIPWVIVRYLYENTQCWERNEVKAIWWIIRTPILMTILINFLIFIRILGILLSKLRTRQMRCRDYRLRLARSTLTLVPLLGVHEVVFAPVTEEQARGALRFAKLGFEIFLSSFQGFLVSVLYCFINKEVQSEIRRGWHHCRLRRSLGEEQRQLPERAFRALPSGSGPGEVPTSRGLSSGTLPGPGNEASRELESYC

human GLP-1 receptor [4] = biological target: human GLP-1 receptor (human, UniProt P43220 24-463); test: cell-based or functional assay

B1: Y-Aib-EGT-αMeF-TSD-4Pal-SI-αMeL-LD-Orn-K((2-[2-(2-Amino-ethoxy)-ethoxy]-acetyl)2-(γ-Glu)-CO-(CH2)12-CO2H)AQ-Aib-EFI-(D-Glu)-αMeY-LIEGGK((2-[2-(2-Amino-ethoxy)-e … (peptide)
peptide: YXEGTXTSDXSIXLDXKAQXEFIXXLIEGGKSSGAPPPS
modifications: Aib2, αMeF6, 4Pal10, αMeL13, Orn16, K17(Z1), Aib20, D-Glu24, αMeY25, K31(Z1), C-term NH2; Z1=AEEA2-(γ-Glu)-CO-(CH2)12-CO2H
B1 gave a Ki (human GLP-1 receptor [1]) of 3.08 nM and a Ki (human GIP receptor [2]) of 0.0595 nM.

B2: Y-Aib-EGT-αMeF(2F)-TSD-4Pal-SI-αMeL-LD-Orn-K((2-[2-(2-Amino-ethoxy)-ethoxy]-acetyl)2-(γ-Glu)-(10-(4-carboxyphenoxy)decanoyl))AQ-Aib-EFI-(D-Glu)-αMeY-LIEGGK((2-[ … (peptide)
peptide: YXEGTXTSDXSIXLDXKAQXEFIXXLIEGGKSSGAPPPS
modifications: Aib2, αMeF(2F)6, 4Pal10, αMeL13, Orn16, K17(Z1), Aib20, D-Glu24, αMeY25, K31(Z1), C-term NH2; Z1=AEEA2-(γ-Glu)-(10-(4-carboxyphenoxy)decanoyl)
B2 was tested, and the Ki (human GIP receptor [2]) was 0.0446 nM.

B3: Y-Aib-EGT-αMeF(2F)-TSD-4Pal-SI-αMeL-LD-Orn-K((εK)-(2-[2-(2-Amino-ethoxy)-ethoxy]-acetyl)2-(γ-Glu)-CO-(CH2)12-CO2H)AQ-Aib-EFI-(D-Glu)-αMeY-LIEGGK((εK)-(2-[2-(2-A … (peptide)
peptide: YXEGTXTSDXSIXLDXKAQXEFIXXLIEGGKSSGAPPPS
modifications: Aib2, αMeF(2F)6, 4Pal10, αMeL13, Orn16, K17(Z1), Aib20, D-Glu24, αMeY25, K31(Z1), C-term NH2; Z1=(εK)-AEEA2-(γ-Glu)-CO-(CH2)12-CO2H
Work on B3 yielded a Ki (human GLP-1 receptor [1]) of 2.22 nM and a Ki (human GIP receptor [2]) of 0.171 nM.

B4: Example 16 (peptide)
peptide: YXEGTXTSDXSIXLDXKAQXEFIKXLIEGGPSSGAPPPS
modifications: Aib2, αMeF(2F)6, 4Pal10, αMeL13, Orn16, Aib20, αMeY25, K17 and K24: K(AEEA2-(γ-Glu)-CO-(CH2)12-CO2H), C-terminal NH2
With B4 the “EC50, cAMP” value (human glucagon receptor) was > 9950 nM, the “EC50, cAMP” value (human GIP receptor [3]) was 0.0113 nM and the “EC50, cAMP” value (human GLP-1 receptor [4]) was 0.245 nM.

B5: Y-Aib-EGT-αMeF(2F)-TSD-4Pal-SI-αMeL-LD-Orn-K((2-[2-(2-Amino-ethoxy)-ethoxy]-acetyl)2-(γ-Glu)-(10-(4-carboxyphenoxy)decanoyl))AQ-Aib-EFIK((2-[2-(2-Amino-ethoxy)- … (peptide)
peptide: YXEGTXTSDXSIXLDXKAQXEFIKXLIEGGPSSGAPPPS
modifications: Aib2, αMeF(2F)6, 4Pal10, αMeL13, Orn16, K17(Z1), Aib20, K24(Z1), αMeY25, C-term NH2; Z1=AEEA2-(γ-Glu)-(10-(4-carboxyphenoxy)decanoyl)
Binder B5 has a Ki (human GLP-1 receptor [1]) of 0.777 nM and a Ki (human GIP receptor [2]) of 0.0314 nM.

B6: Y-Aib-EGT-αMeF(2F)-TSD-4Pal-SI-αMeL-LD-Orn-K((2-[2-(2-Amino-ethoxy)-ethoxy]-acetyl)2-(γ-Glu)-CO-(CH2)12-CO2H)AQ-Aib-EFI-(D-Glu)-αMeY-LIEGGK((2-[2-(2-Amino-ethox … (peptide)
peptide: YXEGTXTSDXSIXLDXKAQXEFIXXLIEGGKSSGAPPPS
modifications: Aib2, αMeF(2F)6, 4Pal10, αMeL13, Orn16, K17(Z1), Aib20, D-Glu24, αMeY25, K31(Z1), C-term NH2; Z1=AEEA2-(γ-Glu)-CO-(CH2)12-CO2H
B6 gave a Ki (human GLP-1 receptor [1]) of 2.33 nM and a Ki (human GIP receptor [2]) of 0.088 nM.

B7: Y-Aib-EGT-αMeF-TSD-4Pal-SI-αMeF-LD-Orn-K((2-[2-(2-Amino-ethoxy)-ethoxy]-acetyl)2-(γ-Glu)-CO-(CH2)12-CO2H)AQ-Aib-EFI-(D-Glu)-αMeY-LIEGGK((2-[2-(2-Amino-ethoxy)-e … (peptide)
peptide: YXEGTXTSDXSIXLDXKAQXEFIXXLIEGGKSSGAPPPS
modifications: Aib2, αMeF6, 4Pal10, αMeF13, Orn16, K17(Z1), Aib20, D-Glu24, αMeY25, K31(Z1), C-term NH2; Z1=AEEA2-(γ-Glu)-CO-(CH2)12-CO2H
B7 showed a Ki (human GLP-1 receptor [1]) of 6.1 nM and a Ki (human GIP receptor [2]) of 0.0683 nM.

B8: Y-Aib-EGT-αMeF-TSD-αMeF-SI-αMeL-LD-Orn-K((2-[2-(2-Amino-ethoxy)-ethoxy]-acetyl)2-(γ-Glu)-CO-(CH2)12-CO2H)AQ-Aib-EFI-(D-Glu)-αMeY-LIEGGK((2-[2-(2-Amino-ethoxy)-e … (peptide)
peptide: YXEGTXTSDXSIXLDXKAQXEFIXXLIEGGKSSGAPPPS
modifications: Aib2, αMeF6, αMeF10, αMeL13, Orn16, K17(Z1), Aib20, D-Glu24, αMeY25, K31(Z1), C-term NH2; Z1=AEEA2-(γ-Glu)-CO-(CH2)12-CO2H
For B8, the Ki (human GLP-1 receptor [1]) was 6.9 nM and the Ki (human GIP receptor [2]) was 0.0891 nM.
